The values below come from patent publication US20260125457A1 (Janssen / Centocor, published 2026).

Assay [1] concerns the target T1, CD3 on primary human pan T cells (human, UniProt P07766 23-207).
T1 construct: whole, on cells; also called CD3e; CD3ε
The experiment in a line: flow cytometry on pan CD3 T cells, 1 h at 37 C, AF647 secondary antibody, Geometric Mean. As to the method: FIG. 22 depicts binding of different CALRmutxCD3 bispecific antibodies to pan CD3 T cells. Flow cytometry was used to evaluate CALRmutxCD3 binding to pan CD3 T cells in vitro, by 1 hour 37° C. incubation, with subsequent incubation with secondary AF647-labeled antibody. Geometric mean fluorescence intensity of AF647 was measured to determine antibody binding.
Flow cytometry was used to evaluate the CD3 arm binding of CALRmutxCD3 antibodies listed in Table 21 to CD3+ pan T cells from healthy human donor. CALRmutxCD3 were tested after 1 hour 37° C. incubation with pan T cells.
On the technique in general: In flow cytometry, cells or beads pass a laser one at a time.

The target of assay [2] is T2, wild-type calreticulin (CALRwt) expressed with MPL in engineered cancer cells (UniProt P27797 18-417, limits assumed).
T2 construct: whole, on cells; also called OCI-M2 MPL CALRwt
T2 sequence (looked up): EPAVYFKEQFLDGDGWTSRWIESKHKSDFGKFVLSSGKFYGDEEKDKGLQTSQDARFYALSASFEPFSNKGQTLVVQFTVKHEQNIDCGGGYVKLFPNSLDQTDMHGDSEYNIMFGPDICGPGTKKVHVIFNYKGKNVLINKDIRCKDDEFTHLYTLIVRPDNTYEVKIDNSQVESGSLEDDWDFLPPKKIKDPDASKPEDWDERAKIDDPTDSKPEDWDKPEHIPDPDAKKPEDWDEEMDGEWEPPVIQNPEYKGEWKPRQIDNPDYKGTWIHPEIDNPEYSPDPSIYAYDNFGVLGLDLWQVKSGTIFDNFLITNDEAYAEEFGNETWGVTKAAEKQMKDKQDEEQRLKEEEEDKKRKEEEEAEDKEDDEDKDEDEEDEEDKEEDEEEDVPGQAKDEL
The experiment in a line: flow cytometry on ELF-153 MPL CALRwt cells, 1 h at 37 C, AF647 secondary antibody, Geometric Mean. As to the method:
(§1) FIGS. 21A-21F depict binding of different CALRmutxCD3 bispecific antibodies to CALRmut-negative or CALRmut-positive cells. Flow cytometry was used to evaluate CALRmutxCD3 binding to CALRmut-negative and CALRmut-positive cancer cells in vitro. CALRmutxCD3 antibodies were tested on a panel of cell lines, engineered to express MPL and CALRmut, after 1 hour 37° C. incubation, with subsequent incubation with secondary AF647-labeled antibody. Geometric mean fluorescence intensity of AF647 was measured to determine antibody binding.

The target of assay [3] is T3, CALRdel52 (mutant calreticulin, 52 base pair deletion, Type 1) expressed with MPL on engineered cancer cells (UniProt P27797 18-417).
T3 construct: whole, on cells; On the cell surface in complex with MPL; also called OCI-M2 MPL CALRdel52
T3 sequence (looked up): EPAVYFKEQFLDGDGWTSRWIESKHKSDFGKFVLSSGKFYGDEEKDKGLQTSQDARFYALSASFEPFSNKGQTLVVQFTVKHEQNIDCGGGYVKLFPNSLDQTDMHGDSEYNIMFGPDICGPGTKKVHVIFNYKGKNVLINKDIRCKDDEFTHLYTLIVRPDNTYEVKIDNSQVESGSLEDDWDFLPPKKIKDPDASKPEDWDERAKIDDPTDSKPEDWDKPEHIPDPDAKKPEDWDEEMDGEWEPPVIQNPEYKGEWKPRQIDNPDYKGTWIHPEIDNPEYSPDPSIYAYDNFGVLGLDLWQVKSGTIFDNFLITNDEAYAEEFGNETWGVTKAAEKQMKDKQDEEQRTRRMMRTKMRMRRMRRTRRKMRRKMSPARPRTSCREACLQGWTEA
The experiment in a line: flow cytometry on OCI-M2 MPL CALRdel52 cells, 1 h at 37 C, AF647 secondary antibody, Geometric Mean. The method, then: as §1

For orientation: EC50 (read off the curve) means the concentration needed to bring the measured effect to its halfway point.

T1 sequence (P07766 23-207): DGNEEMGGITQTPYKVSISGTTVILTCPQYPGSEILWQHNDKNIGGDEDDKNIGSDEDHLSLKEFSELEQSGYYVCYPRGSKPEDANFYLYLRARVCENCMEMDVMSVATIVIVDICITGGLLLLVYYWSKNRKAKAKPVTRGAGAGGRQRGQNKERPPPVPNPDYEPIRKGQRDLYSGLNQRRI

B1: C3CRB126 CALRmut x CD3 bispecific antibody (bispecific antibody, human IgG1, kappa, L234A L235A)
heavy 1: QVQLVQSGAEVKKPGASVKVSCKASGFSLSSYAMSWVRQAPGQGLEWMGVIDSGGTTYYAQKFQGRVTMTRDTSTSTVYMELSSLRSEDTAVYYCARESYAGYDYYGHPIPYGMEPWGQGTLVTVSSASTKGPSVFPLAPSSKSTSGGTAALGCLVKDYFPEPVTVSWNSGALTSGVHTFPAVLQSSGLYSLSSVVTVPSSSLGTQTYICNVNHKPSNTKVDKKVEPKSCGGGGSGGGGSDIQMTQSPSSLSASVGDRVTITCRARQSIGTAIHWYQQKPGCAPKLLIKYASESISGVPSRFSGSGSGTDFTLTISSLQPEDFATYYCQQSGSWPYTFGQGTKLEIKGGGSGGSGGCPPCGGSGGEVQLVESGGGLVKPGGSLRLSCAASGFTFSRYNMNWVRQAPGKGLEWVSSISTSSNYIYYADSVKGRFTFSRDNAKNSLDLQMSGLRAEDTAIYYCTRGWGPFDYWGCGTLVTVSSEPKSSDKTHTCPPCPAPEAAGGPSVFLFPPKPKDTLMISRTPEVTCVVVSVSHEDPEVKFNWYVDGVEVHNAKTKPREEQYNSTYRVVSVLTVLHQDWLNGKEYKCKVSNKALPAPIEKTISKAKGQPREPQVYTLPPSREEMTKNQVSLWCLVKGFYPSDIAVEWESNGQPENNYKTTPPVLDSDGSFFLYSKLTVDKSRWQQGNVFSCSVMHEALHNHYTQKSLSLSPGK
heavy 2: QVQLVQSGAEVKKPGASVKVSCKASGFSLSSYAMSWVRQAPGQGLEWMGVIDSGGTTYYAQKFQGRVTMTRDTSTSTVYMELSSLRSEDTAVYYCARESYAGYDYYGHPIPYGMEPWGQGTLVTVSSASTKGPSVFPLAPSSKSTSGGTAALGCLVKDYFPEPVTVSWNSGALTSGVHTFPAVLQSSGLYSLSSVVTVPSSSLGTQTYICNVNHKPSNTKVDKKVEPKSCDKTHTCPPCPAPEAAGGPSVFLFPPKPKDTLMISRTPEVTCVVVSVSHEDPEVKFNWYVDGVEVHNAKTKPREEQYNSTYRVVSVLTVLHQDWLNGKEYKCKVSNKALPAPIEKTISKAKGQPREPQVYTLPPSREEMTKNQVSLSCAVKGFYPSDIAVEWESNGQPENNYKTTPPVLDSDGSFFLVSKLTVDKSRWQQGNVFSCSVMHEALHNRFTQKSLSLSPGK
light: DIQMTQSPSTLSASVGDRVTITCQASQSLYNNKNLAWYQQKPGKAPKLLIYYASALASGVPSRFSGSGSGTEFTLTISSLQPDDFATYYCQGEFNCNSADCNSFGGGTKVEIKRTVAAPSVFIFPPSDEQLKSGTASVVCLLNNFYPREAKVQWKVDNALQSGNSQESVTEQDSKDSTYSLSSTLTLSKADYEKHKVYACEVTHQGLSSPVTKSFNRGEC
notes: Chain A heavy: CALRB1114 Fab heavy part, CD3 spFv (LH), Fc; Chain B heavy: CALRB1114
Regarding B1, the binding result is reported as “binds” in assay [1] and “no binding (tested: 100 nM)” in assay [2]. Also, the “EC50 (read off the curve)” value in assay [3] was approximately 1 nM.
